Among the data in the supplement of paper PMC10126150 are switch fluorescence ratio values, retold here.

± gives the standard deviation of the averaged measurements.
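Note: ATP exposure 15 min at 22 °C before imaging.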

The test system of this data set is ATP. Put plainly: switch fluorescence ratio, 500 uM ATP over buffer (Cy3 cluster intensity, sum of 5 cycles each) (fold (ratio)); higher = stronger signal-on switching upon ATP binding; sequences stand for … in TCGTCGGCAGCGTCAGATGTGTATAAGAGACAGTTTTTTTTTTTTTTTTTTTTTTTTT…TC. Conditions: aptamer strand: ATP DNA aptamer (quencher-CACCTGGGGGAGTATTGCGGAGGAAGG + anchor), 100 nM annealed; ATP concentration: 500 uM. The method, boiled down:
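After annealing to 100 nM quencher-labelled ATP aptamer, Cy3-labelled switching-strand clusters on a modified Illumina MiSeq flow-cell were imaged in selection buffer. A second image followed after 15 min with 500 uM ATP at 22 °C, and five such buffer/ATP cycles were done, each separated by NaOH stripping and re-annealing. The fluorescence ratio, averaged per switch-domain sequence, is summed target-cycle over summed buffer-cycle Cy3 intensity per cluster, with clusters outside 100-1000 RFU excluded.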
Turning to TATTGTAATT, the switch fluorescence ratio amounted to 1.01 ± 0.014.

Consider GGAGTTGCAG, for which the switch fluorescence ratio was 0.975 ± 0.063.

With ATAGAGTTTG, the switch fluorescence ratio amounted to 0.976 ± 0.0014. Regarding CCGTCCGGTT, the switch fluorescence ratio stood at 1.16 ± 0.018.

With TAACGAAACT, the switch fluorescence ratio was 1.26 ± 0.28. The value for ATTACGGGGG was 1.01 ± 0.088; that for AGACCTCATA was 1.02 ± 0.021. For GAGAAAGCTA, the switch fluorescence ratio was determined as 1.031 ± 0.0084.

Regarding ACGGACATCT, the switch fluorescence ratio was determined as 1.28 ± 0.022. Consider ATGTTTTAGA, for which the switch fluorescence ratio is 0.95 ± 0.015. Under AGGGTTATGC stands 0.984 ± 0.031; under ACTGCGTAAA, 0.991 ± 0.041. Under AGAGGAGAAT stands 0.993 ± 0.0021. The value for AACGAGACCA was 1.07 ± 0.052; that for GGATCAGAGA was 1.08 ± 0.023. As to CAAAAATTTT, the switch fluorescence ratio worked out at 0.986 ± 0.026. The value for TTGGGTACGA was 0.997 ± 0.0043.

GCTTTCGTTA: the switch fluorescence ratio amounted to 1.018 ± 0.0071.

On to AGTGGGGGGG, for which the switch fluorescence ratio was found to be 0.991 ± 0.049.

In the case of AGATTGCCGG, the switch fluorescence ratio was 0.97 ± 0.034. The value for TTTGAACTTG was 1.01 ± 0.024; that for TTATGGCTAT was 0.991 ± 0.031.

On to AGGAATGACT, for which the switch fluorescence ratio worked out at 1 ± 0.023. The value for TGGGAGGCAT was 1.01 ± 0.027; that for CACATCATAT was 1.04 ± 0.039. For GATCCAGGAG, the switch fluorescence ratio came to 1.11 ± 0.047. The value for AGAGGTTTTG was 1.01 ± 0.042. For GTAGGGAGGG, the switch fluorescence ratio came out at 0.987 ± 0.013. Under TTTCTACTCG stands 0.995 ± 0.017. As for CGAACTGAGG, the switch fluorescence ratio came out at 0.985 ± 0.014. Under TAAAGCGGTG stands 0.992 ± 0.027; under CCTAGGGTGG, 1.03 ± 0.069. The value for ACGGTTTGCG was 0.979 ± 0.011. Regarding TAAGGCTCCC, the switch fluorescence ratio stood at 1.063 ± 0.0044. The value for AAGTATATTG was 0.991 ± 0.025.

In the case of GTATTGATTT, the switch fluorescence ratio was 0.9769 ± 0.0055. Under TATGTATGGA stands 0.989 ± 0.015; under TTTTTCAAAA, 1.029 ± 0.0063; under GAGTTCGGGG, 0.987 ± 0.014. GGACTGAAGT: the switch fluorescence ratio amounted to 1.02 ± 0.038. For ATGAGTCATC, the switch fluorescence ratio amounted to 0.981 ± 0.034.

Regarding GACGTCTGGC, the switch fluorescence ratio is 1.14 ± 0.24. The value for TGCATGTATT was 1.012 ± 0.0039; that for TCCCCGACGT was 1.53 ± 0.22. Under TCATTTGGTT stands 0.988 ± 0.042. Under TATGTTGTCG stands 1.08 ± 0.12; under TAATTGTAGG, 0.98 ± 0.032; under TGCGGTAAA, 1.09 ± 0.14. As to GTGGTATCGG, the switch fluorescence ratio worked out at 0.989 ± 0.029.

As to GGAGTCTGGG, the switch fluorescence ratio amounted to 0.981 ± 0.021. Under TTGAGGGAGG stands 1 ± 0.034; under AGTGGGTTTT, 0.988 ± 0.043.

Consider GGATGTAGGG, for which the switch fluorescence ratio was 0.999 ± 0.029. The value for TGCCAGGAGT was 1.05 ± 0.014; that for GGATTATGAA was 0.994 ± 0.023.

GCGCATTGTT: the switch fluorescence ratio was 1.026 ± 0.0094. Turning to GTGTTTTACG, the switch fluorescence ratio came out at 1.01 ± 0.021. Regarding AATTTAGGGT, the switch fluorescence ratio worked out at 1.01 ± 0.028.

Consider AGAAAAGAGT, for which the switch fluorescence ratio is 1.01 ± 0.017.

As to TGGGTTATAG, the switch fluorescence ratio was 0.9786 ± 0.0038.

For the sequence TAAACCCACT, the switch fluorescence ratio was 1.24 ± 0.063. Under ATGGTGTCAG stands 0.994 ± 0.046; under CGTATAGAGA, 0.998 ± 0.039. The value for AGTATCTTTA was 0.9913 ± 0.0096. The value for CTAATTTGCC was 1.02 ± 0.084; that for TTTCAAAGGG was 0.994 ± 0.015. With AGTTAGAAAT, the switch fluorescence ratio stood at 1.02 ± 0.03. The value for CACTAACTA was 1.121 ± 0.0035; that for TTGAACCTTT was 1.02 ± 0.012; that for ATGCGGTATG was 1 ± 0.0024. Under CTTGGTTTAG stands 1.01 ± 0.035; under GATTTCAAAT, 1.02 ± 0.023. Under AATGTAATCA stands 0.997 ± 0.024. For GGGGTCCTGG, the switch fluorescence ratio came out at 0.943 ± 0.022. The value for TTTTTCAGCT was 1.02 ± 0.012. The value for ATGGGAAATC was 0.9978 ± 0.0044; that for GGGACTCCAA was 1.24 ± 0.35. The value for AGTAATATTT was 1.03 ± 0.0061.
